Measured values from article PMC3093129 (Biochemistry, 2011).

Target: the molecule itself
Assay: AUC

B1: Liprin-β2 coiled-coil mutant C145S (complete coiled-coil construct, residues S100 through E315) (domain or fragment, human)
chain: MEKTRSAASNETYQERLARLEGDKESLILQVSVLTDQVEAQGEKIRDLEVSLEGHQVKLNAAEEMLQQELLSRTSLETQKLDLMTEVSELKLKLVGMEKEQREQEEKQRKAEELLQELRHLKIKVEELENERNQYEWKLKATKAEVAQLQEQVALKDAEIERLHSQLSRTAALHSESHTERDQEIQRLKMGMETLLLANEDKDRRIEELTGLLNQYRKVKE
  stoichiometry N: 2
